The target in assay [1] is T1, TNFR2-Fc fusion protein (Enbrel) (UniProt P20333 23-257).
T1 construct: Commercial product Enbrel, coated at 1 ug/ml; not shown: Fc part of Enbrel
T1 sequence (looked up): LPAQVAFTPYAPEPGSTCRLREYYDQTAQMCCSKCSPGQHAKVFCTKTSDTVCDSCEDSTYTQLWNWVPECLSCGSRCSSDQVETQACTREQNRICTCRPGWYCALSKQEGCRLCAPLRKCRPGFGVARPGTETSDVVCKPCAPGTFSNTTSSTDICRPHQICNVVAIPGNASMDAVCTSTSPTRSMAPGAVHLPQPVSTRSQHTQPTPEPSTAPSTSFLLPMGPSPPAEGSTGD
Description: ELISA on coated TNFR2-Fc (Enbrel). The method, then: FIG. 36: a-c) Purified TNF variants (a: MHD2-scTNFR2, b: EHD2-scTNFR2 with a 16 aa linker between EHD2 and scTNFR2 as well as c: EHD2-scTNFR2 with a 28 aa linker between EHD2 and scTNFR2) were analyzed by 8% SDS-PAGE under reducing (+2-ME) or non-reducing (−2-ME) conditions and stained with Coomassie. d) Binding studies with TNFR2-Fc fusion protein. Plates were coated with 1 μg/ml TNFR2-Fc fusion protein (Enbrel). TNF fusion proteins were incubated for 1 h at RT and bound TNF fusion proteins were detected using HRP-conjugated anti-TNF antibodies and TMB substrate (n=2).
On the technique in general: In an ELISA, binding on a coated surface is turned into a signal by an enzyme label.

Assay [2] addresses T2, EGFR-Fc fusion protein (UniProt P00533 25-645, limits assumed).
T2 construct: extracellular domain; also called Fc fusion protein of the extracellular region of EGFR; immobilized EGFR; not shown: Fc part
Nature of the assay: ELISA on immobilized EGFR-Fc.

In assay [3] the target is T3, HER2-Fc fusion protein (UniProt P04626 23-652, limits assumed).
T3 construct: extracellular domain; also called Fc fusion protein of the extracellular region of HER2; not shown: Fc part
Description: ELISA on immobilized HER2-Fc.

Assay [4] deals with T4, recombinant TRAIL-R1 (receptor-Fc fusion protein) (UniProt O00220 24-239, limits assumed).
T4 construct: also called TRAIL receptor 1; not shown: Fc part
Description: ELISA on recombinant receptor-Fc.

The target of assay [5] is T5, CEA (UniProt P06731 35-685, limits assumed).
T5 construct: also called immobilized CEA; carcinoembryonic antigen
T5 sequence (looked up): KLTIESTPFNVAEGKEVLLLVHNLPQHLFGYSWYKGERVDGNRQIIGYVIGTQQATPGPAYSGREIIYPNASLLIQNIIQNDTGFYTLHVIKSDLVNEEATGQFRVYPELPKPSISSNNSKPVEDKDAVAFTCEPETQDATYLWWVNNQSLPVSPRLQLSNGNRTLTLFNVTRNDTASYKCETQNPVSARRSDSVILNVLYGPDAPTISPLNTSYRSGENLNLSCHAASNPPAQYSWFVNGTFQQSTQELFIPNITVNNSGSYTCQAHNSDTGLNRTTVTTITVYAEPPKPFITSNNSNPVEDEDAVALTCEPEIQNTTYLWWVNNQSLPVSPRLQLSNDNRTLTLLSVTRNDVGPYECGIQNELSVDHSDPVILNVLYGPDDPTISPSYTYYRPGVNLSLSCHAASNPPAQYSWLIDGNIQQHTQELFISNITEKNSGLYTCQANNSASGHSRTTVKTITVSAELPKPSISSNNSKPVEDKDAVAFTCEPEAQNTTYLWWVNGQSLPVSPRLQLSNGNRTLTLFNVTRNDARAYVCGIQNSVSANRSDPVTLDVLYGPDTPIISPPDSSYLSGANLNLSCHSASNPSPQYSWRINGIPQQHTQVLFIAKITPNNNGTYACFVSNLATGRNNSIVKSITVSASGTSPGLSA
Description: ELISA on immobilized CEA. The source says:
Bound antibodies were detected with an HRP-conjugated anti-His-tag antibody.
A bispecific single-chain diabody (scDb)-EHD2 fusion protein was generated by fusing a scDb directed against CEA and human CD3 to the N-terminus of the EHD2 (FIG. 27a, b). The construct was cloned into mammalian expression vector pSecTagA and produced in stably transfected HEK293 cells. Protein was purified from the cell culture supernatant by immobilized metal affinity chromatography.

B1: EHD2-scTNFR2-L16aa (ligand)
chain: DAAQPAGGGAAAHHHHHHGGTGGGGSGGKLGGSGGDFTPPTVKILQSSCDGGGHFPPTIQLLCLVSGYTPGTINITWLEDGQVMDVDLSTASTTQEGELASTQSELTLSQKHWLSDRTYTCQVTYQGHTFEDSTKKCADSNGGGSGGGTGSEFLASSRTPSDKPVAHVVANPQAEGQLQWLNRRANALLANGVELRDNQLVVPSEGLYLIYSQVLFKGQGCPSTHVLLTHTISRIAVSYQTKVNLLSAIKSPCQRETPEGAEAKPWYEPIYLGGVFQLEKGDRLSAEINRPDYLNFRESGQVYFGIIALGGGGSSSRTPSDKPVAHVVANPQAEGQLQWLNRRANALLANGVELRDNQLVVPSEGLYLIYSQVLFKGQGCPSTHVLLTHTISRIAVSYQTKVNLLSAIKSPCQRETPEGAEAKPWYEPIYLGGVFQLEKGDRLSAEINRPDYLNFRESGQVYFGIIALGGGGSSSRTPSDKPVAHVVANPQAEGQLQWLNRRANALLANGVELRDNQLVVPSEGLYLIYSQVLFKGQGCPSTHVLLTHTISRIAVSYQTKVNLLSAIKSPCQRETPEGAEAKPWYEPIYLGGVFQLEKGDRLSAEINRPDYLNFRESGQVYFGIIAL
notes: Dimer of the TNFR2-selective single-chain TNF mutant (D143N/A145R) fused to EHD2, 16 aa linker; also called EHD2-scTNFR2 with a 16 aa linker between EHD2 and scTNFR2
As for B1, the binding result in assay [1] is reported as “binds”.

B2: EHD2-scTRAIL (ligand)
chain: DYKDDDDKGGGGSAAQPADFTPPTVKILQSSCDGGGHFPPTIQLLCLVSGYTPGTINITWLEDGQVMDVDLSTASTTQEGELASTQSELTLSQKHWLSDRTYTCQVTYQGHTFEDSTKKCADSNGGSGGEFTRGTSEETISTVQEKQQNISPLVRERGPQRVAAHITGTRGRSNTLSSPNSKNEKALGRKINSWESSRSGHSFLSNLHLRNGELVIHEKGFYYIYSQTYFRFQEEIKENTKNDKQMVQYIYKYTSYPDPILLMKSARNSCWSKDAEYGLYSIYQGGIFELKENDRIFVSVTNEHLIDMDHEASFFGAFLVGGGGSGGGSTSEETISTVQEKQQNISPLVRERGPQRVAAHITGTRGRSNTLSSPNSKNEKALGRKINSWESSRSGHSFLSNLHLRNGELVIHEKGFYYIYSQTYFRFQEEIKENTKNDKQMVQYIYKYTSYPDPILLMKSARNSCWSKDAEYGLYSIYQGGIFELKENDRIFVSVTNEHLIDMDHEASFFGAFLVGGGGSGGGSTSEETISTVQEKQQNISPLVRERGPQRVAAHITGTRGRSNTLSSPNSKNEKALGRKINSWESSRSGHSFLSNLHLRNGELVIHEKGFYYIYSQTYFRFQEEIKENTKNDKQMVQYIYKYTSYPDPILLMKSARNSCWSKDAEYGLYSIYQGGIFELKENDRIFVSVTNEHLIDMDHEASFFGAFLVG
notes: Bivalent homodimer of single-chain TRAIL at the C-terminus of EHD2, FLAG-tagged
Consider B2, for which the binding result in assay [2] is listed as “no binding”; in assay [3] it was “no binding”; in assay [4] it was “binds”.

B3: EHD2-scTNFR2-L28aa (ligand)
chain: DAAQPAGGGAAAHHHHHHGGTGGGGSGGKLGGSGGDFTPPTVKILQSSCDGGGHFPPTIQLLCLVSGYTPGTINITWLEDGQVMDVDLSTASTTQEGELASTQSELTLSQKHWLSDRTYTCQVTYQGHTFEDSTKKCADSNGGGSGGGSGGGSGGGSGGGSGGSEFLASSRTPSDKPVAHVVANPQAEGQLQWLNRRANALLANGVELRDNQLVVPSEGLYLIYSQVLFKGQGCPSTHVLLTHTISRIAVSYQTKVNLLSAIKSPCQRETPEGAEAKPWYEPIYLGGVFQLEKGDRLSAEINRPDYLNFRESGQVYFGIIALGGGGSSSRTPSDKPVAHVVANPQAEGQLQWLNRRANALLANGVELRDNQLVVPSEGLYLIYSQVLFKGQGCPSTHVLLTHTISRIAVSYQTKVNLLSAIKSPCQRETPEGAEAKPWYEPIYLGGVFQLEKGDRLSAEINRPDYLNFRESGQVYFGIIALGGGGSSSRTPSDKPVAHVVANPQAEGQLQWLNRRANALLANGVELRDNQLVVPSEGLYLIYSQVLFKGQGCPSTHVLLTHTISRIAVSYQTKVNLLSAIKSPCQRETPEGAEAKPWYEPIYLGGVFQLEKGDRLSAEINRPDYLNFRESGQVYFGIIAL
notes: Dimer of the TNFR2-selective single-chain TNF mutant (D143N/A145R) fused to EHD2, 28 aa linker; also called EHD2-scTNFR2 with a 28 aa linker between EHD2 and scTNFR2
Consider B3, for which the binding result in assay [1] is recorded as “binds”.

B4: MHD2-scTNFR2 (ligand)
chain: DAAQPAGGGAAAHHHHHHGGTGGGGSGGKLGGSGGAELPPKVSVFVPPRDGFFGNPRKSKLICQATGFSPRQIQVSWLREGKQVGSGVTTDQVQAEAKESGPTTYKVTSTLTIKESDWLGQSMFTCRVDHRGLTFQQNASSMCVPDGGGSGGGTGSEFLASSRTPSDKPVAHVVANPQAEGQLQWLNRRANALLANGVELRDNQLVVPSEGLYLIYSQVLFKGQGCPSTHVLLTHTISRIAVSYQTKVNLLSAIKSPCQRETPEGAEAKPWYEPIYLGGVFQLEKGDRLSAEINRPDYLNFRESGQVYFGIIALGGGGSSSRTPSDKPVAHVVANPQAEGQLQWLNRRANALLANGVELRDNQLVVPSEGLYLIYSQVLFKGQGCPSTHVLLTHTISRIAVSYQTKVNLLSAIKSPCQRETPEGAEAKPWYEPIYLGGVFQLEKGDRLSAEINRPDYLNFRESGQVYFGIIALGGGGSSSRTPSDKPVAHVVANPQAEGQLQWLNRRANALLANGVELRDNQLVVPSEGLYLIYSQVLFKGQGCPSTHVLLTHTISRIAVSYQTKVNLLSAIKSPCQRETPEGAEAKPWYEPIYLGGVFQLEKGDRLSAEINRPDYLNFRESGQVYFGIIAL
As for B4, the binding result in assay [1] is given as “binds”.

B5: Anti-CEAxCD3 scDb-EHD2 (bispecific antibody)
chain: DAAQPAMAQVKLQQSGAELVRSGTSVKLSCTASGFNIKDSYMHWLRQGPEQGLEWIGWIDPENGDTEYAPKFQGKATFTTDTSSNTAYLQLSSLTSEDTAVYYCNEGTPTGPYYFDYWGQGTTVTVSSGGGGSDIQMTQSPSSLSASVGDRVTITCRASQDIRNYLNWYQQKPGKAPKLLIYYTSRLESGVPSRFSGSGSGTDYTLTISSLQPEDFATYYCQQGNTLPWTFGQGTKVEIKRGGGGSGGRASGGGGSEVQLVESGGGLVQPGGSLRLSCAASGYSFTGYTMNWVRQAPGKGLEWVALINPYKGVSTYNQKFKDRFTISVDKSKNTAYLQMNSLRAEDTAVYYCARSGYYGDSDWYFDVWGQGTLVTVSSGGGGSDIELTQSPAIMSASPGEKVTITCSASSSVSYMHWFQQKPGTSPKLWIYSTSNLASGVPARFSGSGSGTSYSLTISRMEAEDAATYYCQQRSSYPLTFGAGTKLELKRGSLGGSGGDFTPPTVKILQSSCDGGGHFPPTIQLLCLVSGYTPGTINITWLEDGQVMDVDLSTASTTQEGELASTQSELTLSQKHWLSDRTYTCQVTYQGHTFEDSTKKCADSNGGGSGGGTGSEFAAAHHHHHH
notes: Homodimer: scDb against CEA and human CD3 at the N-terminus of EHD2, His6; also called bispecific single-chain diabody (scDb)-EHD2 fusion protein
In the case of B5, the binding result in assay [5] is “binds”.

B6: Anti-CEA scFv-EHD2 (scFv)
chain: DAAQPAMAQVKLQQSGAELVRSGTSVKLSCTASGFNIKDSYMHWLRQGPEQGLEWIGWIDPENGDTEYAPKFQGKATFTTDTSSNTAYLQLSSLTSEDTAVYYCNEGTPTGPYYFDYWGQGTTVTVSSGGGGSGGGGSGGGGSDIELTQSPAIMSASPGEKVTITCSASSSVSYMHWFQQKPGTSPKLWIYSTSNLASGVPARFSGSGSGTSYSLTISRMEAEDAATYYCQQRSSYPLTFGAGTKLELKRGSLGGSGGDFTPPTVKILQSSCDGGGHFPPTIQLLCLVSGYTPGTINITWLEDGQVMDVDLSTASTTQEGELASTQSELTLSQKHWLSDRTYTCQVTYQGHTFEDSTKKCADSNGGGSGGGTGSEFAAAHHHHHH
notes: Bivalent homodimer, His6; also called scFv-EHD2 fusion protein directed against CEA
B6: in assay [5], the binding result is “binds”.

Values taken from patent US20170327594A1 (UNIVERSIT T STUTTGART, published 2017).
